Experiment [1] addresses ERK (endogenous, mouse ME cells) (mouse (endogenous in ESC-derived ME cells)) (UniProt Q63844). The experiment is described as follows: proximity ligation.
Experiment [2] concerns the target Aurora B (endogenous, mouse cells) (mouse (endogenous in E14 ESCs), UniProt O70126 1-345). The experiment is described as follows: proximity ligation.

Sequence of ERK (endogenous, mouse ME cells) (mouse (endogenous in ESC-derived ME cells)) (Q63844 whole entry): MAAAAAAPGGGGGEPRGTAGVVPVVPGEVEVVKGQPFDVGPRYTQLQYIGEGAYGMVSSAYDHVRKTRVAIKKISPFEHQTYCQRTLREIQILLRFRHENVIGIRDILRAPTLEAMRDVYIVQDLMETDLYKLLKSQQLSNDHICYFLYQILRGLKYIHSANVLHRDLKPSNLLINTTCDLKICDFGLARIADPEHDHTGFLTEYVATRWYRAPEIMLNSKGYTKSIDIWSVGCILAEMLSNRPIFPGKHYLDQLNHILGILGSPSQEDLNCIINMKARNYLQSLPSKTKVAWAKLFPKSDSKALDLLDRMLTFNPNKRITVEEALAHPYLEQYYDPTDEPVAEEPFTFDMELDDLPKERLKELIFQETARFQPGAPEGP
Sequence of Aurora B (endogenous, mouse cells) (O70126 whole entry): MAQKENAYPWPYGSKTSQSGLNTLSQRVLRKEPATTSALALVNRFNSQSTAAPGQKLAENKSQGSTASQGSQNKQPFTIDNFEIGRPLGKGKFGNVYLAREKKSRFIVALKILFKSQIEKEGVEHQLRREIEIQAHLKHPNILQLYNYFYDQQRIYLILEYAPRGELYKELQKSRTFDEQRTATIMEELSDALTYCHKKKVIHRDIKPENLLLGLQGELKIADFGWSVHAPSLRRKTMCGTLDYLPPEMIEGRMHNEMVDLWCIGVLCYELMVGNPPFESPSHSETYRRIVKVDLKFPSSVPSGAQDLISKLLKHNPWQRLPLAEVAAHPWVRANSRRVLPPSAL

B1: CNOT3-T292A/S294A (endogenous, Cnot3-DM mouse ESCs) (natural protein, mouse (endogenous in E14 ESCs), UniProt Q8K0V4 1-751, looked up)
chain: MADKRKLQGEIDRCLKKVSEGVEQFEDIWQKLHNAANANQKEKYEADLKKEIKKLQRLRDQIKTWVASNEIKDKRQLIENRKLIETQMERFKVVERETKTKAYSKEGLGLAQKVDPAQKEKEEVGQWLTNTIDTLNMQVDQFESEVESLSVQTRKKKGDKDKQDRIEGLKRHIEKHRYHVRMLETILRMLDNDSILVDAIRKIKDDVEYYVDSSQDPDFEENEFLYDDLDLEDIPQALVATSPPSHSHMEDEIFNQSSSTPTSTTSSSPIPPSPANCTTENSEDDKKRGRSADAEVSQSPAKNGSKPVHSNQHPQSPAVPPTYPSGPPPTTSALSSTPGNNGASTPAAPTSALGPKASPAPSHNSGTPAPYAQAVAPPNASGPSNAQPRPPSAQPSGGSGGGSGGSSSNSNSGTGGGAGKQNGATSYSSVVADSPAEVTLSSSGGSSASSQALGPTSGPHNPAPSTSKESSTAAPSGAGNVASGSGNNSGGPSLLVPLPVNPPSSPTPSFSEAKAAGTLLNGPPQFSTTPEIKAPEPLSSLKSMAERAAISSGIEDPVPTLHLTDRDIILSSTSAPPTSSQPPLQLSEVNIPLSLGVCPLGPVSLTKEQLYQQAMEEAAWHHMPHPSDSERIRQYLPRNPCPTPPYHHQMPPPHSDTVEFYQRLSTETLFFIFYYLEGTKAQYLAAKALKKQSWRFHTKYMMWFQRHEEPKTITDEFEQGTYIYFDYEKWGQRKKEGFTFEYRYLEDRDLQ
B1: in experiment [1], the fold reduction of PLA interaction foci in the cytoplasm against wild-type cells stood at 3 fold and the fold reduction of PLA interaction foci in the nucleus against wild-type cells was found to be 5 fold. Further, in experiment [2], the “fold increase of PLA interaction against wild-type cells” value was ~3 fold.

The record behind these values is publication doi:10.1101/756932 (bioRxiv, 2019).
